The record followed here is patent US20230043577.

pKd: −log10 of the molar value.

What all share (assay): EMSA
In data set [1] the test system is MeCP2 MBD R133C R133C (Homo sapiens). To be noted: same buffer.
Data set [2] deals with MeCP2 MBD S134C S134C (Homo sapiens). To be noted: same buffer.
For data set [3], the target named is MeCP2 MBD (hMeCP2[90-181]) wild type (Homo sapiens) (UniProt P51608).
Where [4] appears, read: 5mC in CpG of one strand, 5hmC in the other.
[5] abbreviates: 5mC in CpG of one strand, 5fC in the other.
[6] abbreviates: unmodified C in CpG of one strand, 5hmC in the other.
[7] abbreviates: 5hmC in CpG of one strand, 5fC in the other.

MeCP2 MBD (hMeCP2[90-181]) wild type (Homo sapiens), sequence (P51608 90-181): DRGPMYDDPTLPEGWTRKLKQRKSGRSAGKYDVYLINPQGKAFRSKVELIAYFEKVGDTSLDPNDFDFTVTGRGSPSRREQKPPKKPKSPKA

On to 24-mer mC/hmC CpG duplex, for which the pKd in data set [1] (setting [4]) was 6.18; in data set [2] (setting [4]), 5.94; in data set [3] (5mC in CpG of one strand, 5hmC in the other, same buffer), 6.65.
In the case of 24-mer mC/fC CpG duplex, the pKd is 6.27 in data set [1] (setting [5]); 6.10 in data set [2] (setting [5]); 6.71 in data set [3] (5mC in CpG of one strand, 5fC in the other, same buffer).
For the substance 24-mer hmC/hmC CpG duplex, the pKd is 5.59 in data set [1] (5hmC in CpG on both strands); 5.12 in data set [2] (5hmC in CpG on both strands); 6.01 in data set [3] (5hmC in CpG on both strands, same buffer).
Regarding 24-mer C/hmC CpG duplex, the pKd in data set [1] (setting [6]) was 5.09; in data set [2] (setting [6]) it was 5.12; in data set [3] (unmodified C in CpG of one strand, 5hmC in the other, same buffer) it was 5.97.
Regarding 24-mer hmC/fC CpG duplex, the pKd was 5.79 in data set [1] (setting [7]); 5.34 in data set [2] (setting [7]); 6.27 in data set [3] (5hmC in CpG of one strand, 5fC in the other, same buffer).
In the case of 24-mer mC/mC CpG duplex, the pKd in data set [1] (5mC in CpG on both strands) is 6.93; in data set [2] (5mC in CpG on both strands), 6.93; in data set [3] (5mC in CpG on both strands, room temperature, 50 ng/uL poly(dA)poly(dT), 20 mM HEPES pH 7.3 buffer) it was 7.57.
